{
  "source": "the DeepSol protein solubility set",
  "data": [
    {"assay": "soluble on expression in E. coli; label from the status in PepcDB or PDB records", "values": [
      {"sequence": "MAAVILESIFLKRSQQKKKTSPLNFKKRLFLLTVHKLSYYEYDFERGRRGSKKGSIDVEKITCVETVVPEKNPPPERQIPRRGEESSEMEQISIIERFPYPFQVVYDEGPLYVFSPTEELRKRWIHQLKNVIRYNSDLVQKYHPCFWIDGQYLCCSQTAKNAMGCQILENRNGSLKPGSSHRKTKKPLPPTPEEDQILKKPLPPEPAAAPVSTSELKKVVALYDYMPMNANDLQLRKGDEYFILEESNLPWWRARDKNGQEGYIPSNYVTEAEDSIEMYEWYSKHMTRSQAEQLLKQEGKEGGFIVRDSSKAGKYTVSVFAKSTGDPQGVIRHYVVCSTPQSQYYLAEKHLFSTIPELINYHQHNSAGLISRLKYPVSQQNKNAPSTAGLGYGSWEIDPKDLTFLKELGTGQFGVVKYGKWRGQYDVAIKMIKEGSMSEDEFIEEAKVMMNLSHEKLVQLYGVCTKQRPIFIITEYMANGCLLNYLREMRHRFQTQQLLEMCKDVCEAMEYLESKQFLHRDLAARNCLVNDQGVVKVSDFGLSRYVLDDEYTSSVGSKFPVRWSPPEVLMYSKFSSKSDIWAFGVLMWEIYSLGKMPYERFTNSETAEHIAQGLRLYRPHLASEKVYTIMYSCWHEKADERPTFKILLSNILDVMDEES", "soluble on expression in E. coli": "soluble"},
      {"sequence": "MAFQLEMVTRETVVIRLFGELDHHAVEQIRAKISTAIFQGAVTTIIWNFERLSFMDSSGVGLVLGRMRELEAVAGRTILLNPSPTVRKVFQFSGLGPWMMDATEEEAIDRVRGIVNG", "soluble on expression in E. coli": "soluble"},
      {"sequence": "MSLQWKPAGDKIRTFWAEKVDVNNVLPEYPRPIMERSDWQNLNGLWNYAVLPLGQSAPTTFDGKILVPFAIESSLSGVGKTLGMEKELWYQRAFNIPSSWRGKRVLLHFGAVDWKTEVWVNNIKVGEHTGGFTPFTFDVTEALEKSTNTLTVKVWDPTDKGFQPRGKQVSNPRGIWYTPVSGIWQTVWLEPVSEHYIAGIKTTPDIDTNKIKVKVETDSNRQSDRLEVKVFDGKHLVAMGTSINGLPVEIPMPADAKLWSPDSPFLYQMEVSLISAGKLVDQIKSYVAMRKYSIKRDEHGIVRLQLNNKDLFQFGPLDQGWWPDGLYTAPTDEALRYDIEKTKDFGFNMIRKHIKVEPARWYTYCDQIGLIVWQDMPSGDKSPEWQNRKYFEGTELTRSAESEETYRKEWKEVIDCLYSYPCIGTWVPFNEAWGQFKTQEIAEWTKQYDPSRLVNPASGGNHYTCGDMLDLHHYPGPEMFLYDAQRATVLGEYGGIGLVLKDHLWEPNRNWGYIQFNTSAEATAEYLKYAGILKDMISRGFSAAVYTQTTDVEVEVNGLMTYDRKVIKLDESKLKKMNTEICNSLKEGHHHHHH", "soluble on expression in E. coli": "soluble"},
      {"sequence": "MRRILSVLLENESGALSRVVGLFSQRAFNIESLTVAPTDDPTLSRMTIEAVGDAQALEQIEKQLHKLVDVFKVVNLSEQEHIEREIVLAKVRAVGSSRDEIKRLADIFRGQIVDVTPKSYTIQLSGTNDKVDAFISALKEETTLLEIVRSGLISVSRGEKNILLEHHHHHH", "soluble on expression in E. coli": "not soluble"},
      {"sequence": "MGSDKIHHHHHHMKKNIIILGLISLLAVSCGDDFLTTHPGDSVSTDLALSTEQDIDNAVNGLYDLMSSYGYYGGTMFFYGDMKGDDMQSSYNSGRTCNRCYLYDHRSTSLNAGYLWGRPFYIIRNAWNVINAIDDGKVQGSEQRLKELKGEAMTIMALCQFDLTRCFGYPYTKDKGAGWGAPIVDHAITLDENPPRSTVAKDYEFIISTLEEAIPLMSTSKNNSRMNAYAARALLSRIYLYHDDNEKAFQMASNLIEEVEGNGMYRLYTRDEYVPAWDLKNTFGTESLFEIANSTDDNGGRSSLAYLMHWNGYREIFATQKFVDELLSDPEDIRCLLLEKNVYNKNDVWWLKKWPGTDATTPSFENNYVIFRLSEVYLNAAEAGVKIGGASAVKGLNYLNAIVQRANPAKEVTAAEYTLDRVLEERSKELIGEGHRFFDMLRNGKTIVRKGGYHLPGIVEEIDWDYYKCVLPIPTDQFTFSPDMEQNPGYTKN", "soluble on expression in E. coli": "not soluble"},
      {"sequence": "MGSDKIHHHHHHMMPNPLLDIRIGTMVRANLEDPAAYVRQILPLGFESIQPFFWQTLGGKDLPRLAGEIREAIGDADVVVSSLGVFGNPLESGEVDRGVLAAWETVIDNAHLFGASMVSGFTGRLRGKKLTDSLPRFREVWGPLAKRAADKGVRIAFENCAMDGNWAVGDWNIAHNPDAWELMFNELPDDNLGLEWEPCHQLVYLIDPIPQIRKWAPRIFHVHGKDATVRWDVIREHGVFGRLPFVQMRTPGFGDSDWTRVISELRLAGYKGAIDIEGWHDPVYRDDLEITGQARALEYLKQCRGGASYLQNPT", "soluble on expression in E. coli": "not soluble"},
      {"sequence": "MKLKITLYSVCLLMLLAACQQDGPTPEPSVGSRTVLVYMIAQNSLAPLASADIEEMKEGMRQVDATSGNLLVYIDDYSAPRLIRLGKDKKGKVVEETIENYPEQNSADANVMKKVISTAFNQYKAEKYGMVFWSHGEGWIPSPAKTRWFGQDGNNYMDIADLHAALQVAPDLDFLFFDACFMEAVEVAYALRDCGSYLISSPTEIPGPGAPYQTVVPAMFSAENAALKIASCYYDYYQSRYNDGIGMSNEDWTGGVSVGVAKMSELENLAVATSKVLPRYITGKQNFDLSGVMCYDRRTDKQYYYDLDRFIYQITAGNGDYDSWREAFDKVMVYWKSTPRNYSAYAGMFTMNQDAKGLSTYIPRMSAPSLNTSYQQTEWYKVSGWADTGWYKNLEHHHHHH", "soluble on expression in E. coli": "not soluble"},
      {"sequence": "MAHHHHHHMTLTSRTAQAAHAQNDVAAQRPPPPLYPSMNVGASAVHPHQNRPCHAYDSQPAWQNPQLGTAPPAVIAGAPLAPEQQQQQTHQQGRSNQPQSIFGGRFTLLDRLGSGGFGEVYRAEECDQLVPLAVKVERVTDTNALPEQSFLFHEAKVMQEIHKSIQAYMAAQQQHQLLRLQQEKAQSGNGRRANNEAAAAADEVRQEKVGIAKLKYYGQDGMSRVLIMSLHGQSVANVHRHQGRLSLFATVMIADQVLRSLEHVHRAGYVHADLKPDNILLGREDPEQLYLVDFGLSVHFRDRKGKHRPLVTNHSFVGTPRYASLRTHMGHTLSRRDDIEQLVYVMIYLFRGRLPWSGLRISDPDAKEKRIAQMKAEMTLDSICAGCPEAFRDVLNYARCMEFEEEPQYQFLHVLLCSLRDSCTELSSDPSCVPANGSGGVMPQMLTLNVNCSTRQHPKDQNGGDAAANGGAVGVTAAEAGLVQNTNIVSGVVEQIDGVAENPMMMSSRGTGAPAFFSDAIGQGFLSGNGTDAGPLSPRIDCLNGQPFSPPPLDLQRPCGSPQLRQMR", "soluble on expression in E. coli": "not soluble"},
      {"sequence": "MKVVRVCGGFGNQLFQYAFYLAVKHKFNETTKLDIHDMASYELHNGYELERIFNLNENYCSAEEKLAVQSTKNIFTKLLKEIKKYTPFIPRTYIKEKKHLHFSYQEVDLGTKDTSIYYRGSWQNPQYFNSIASEIREKLTFPEFTEPKSLALHQEISEHETVAVHIRRGDYLKHKALGGICDLPYYQNAIKEIEGLVEKPLFVIFSDDITWCRANINVEKVRFVDWNSGEQSFQDMHLMSLCTHNIIANSSFSWWGAWLNANPNKIVISPNKWIHYTDSMGIVPSEWIKVETSILEHHHHHH", "soluble on expression in E. coli": "not soluble"},
      {"sequence": "MSLKFYEDGNIPEIPNMYFIYGDGGTGKTSLLKQLKGHKFVFSFDMSSNVLIGDKDVDVVIFEHNDAPNIQAMVEECIIRAIQNAKYQVIVLDNVTALQNLVLENIDNAAKDNRQNYQKLQLWFRDLGTILKESGKTIYATAHQLDNGSSGISGEGRFQADMNEKTFNAFTSMFDLVGRIYLAAGERMIDLDPEKGNHAKNRLDDRKLIKANELIQSEKGEGHHHHHH", "soluble on expression in E. coli": "soluble"},
      {"sequence": "MNKFKGNKVVLIGNGAVGSSYAFSLVNQSIVDELVIIDLDTEKVRGDVMDLKHATPYSPTTVRVKAGEYSDCHDADLVVICAGARQKPGETRLDLVSKNLKIFKSIVGEVMASKFDGIFLVATNPVDILAYATWKFSGLPKERVIGSGTILDSARFRLLLSEAFDVAPRSVDAQIIGEHGDTELPVWSHANIAGQPLKTLLEQRPEGKAQIEQIFVQTRDAAYDIIQAKGATYYGVAMGLARITEAIFRNEDAVLTVSALLEGEYEEEDVYIGVPAVINRNGIRNVVEIPLNDEEQSKFAHSAKTLKDIMAEAEELK", "soluble on expression in E. coli": "soluble"},
      {"sequence": "MPLFKRRDGSGPAPNATIREKYDFRDVLGTGAFSKVFLAESKSDAGQMYAVKCIDKKALKGKEESLENEIKVLRKLRHNNIVQLFDTYDEKQFVYLVMELVTGGELFDRIVAKGSYTEQDASNLIRQVLEAVGFMHDNGVVHRDLKPENLLYYNQDEDSKIMISDFGLSKTEDSGVMATACGTPGYVAPEVLQQKPYGKAVDVWSIGVIAYILLCGYPPFYDESDANLFAQIIKGEYEFDAPYWDQISDSAKDFITHLMCCDPEARFTCQDALSHPWISGNTAYTHDIHGTVAVHLKKSLAKRNWKKAYNAAAAIRQLQMLRLSSNSNRLQKQASQQQPEPPTPAFHA", "soluble on expression in E. coli": "soluble"},
      {"sequence": "MRVMAFVQARMGSTRLPGKSLMPVWNGMGVLEMTLRRALRARTLSGVVLCTSTDPACDALETLASGLGVQAFRGPEDDVLTRYALATERFEPDAVVRICADSPLVCPEGIDALVAFFRDEGLDYAAHAMDGTGLPDGLGCEVFTAAALAQAHAEATAPEDREHVSLFIRHRPERFRQATLAADAALRAPGVSLDVDTQDDLDALRRFIMALPPSEGPFWSADAIAPLARGLHTPPQGTSMDIASDDYHDFFIRDGKLIGEFEQMYRKSRHAPWHQDEACDKWFNKVSAALVGHALDDPSVRTVFEVGSGLGYFLSQFAGEGRTLTGTDVSATAVEKARALFPGISFEVDDIRFEGRRGPYDLCLMQAVCWCIFPHMDDVVRNVTATVRPGGYLFLGECFQPLDGPFAGKDVIPTPDALIGHFSHAFDTVADVRVTRGEMGGGPIIYWLGRRRGLEHHHHHH", "soluble on expression in E. coli": "soluble"},
      {"sequence": "MSLDLNKYKDRIITLAKPYLNREFDFADVKLTLISGLGVEINGLRIADNPEFGSEDFLSLQSLRIKVALFPLLKKKIQIKKLIMDEPVVRLVRNSNGVFNFSDMASDAEEDEKPQAKDEKRKEKKSGSEKKPDSEHNIFLAGLMVSQFTLHSGQIHFLDNFVPDAPVTMVFDSLNIELKNVSLYKPIRIYASAGLQGTTEQNLLIKGMVGPVGDNMDLVGLAMDIHVSVQNVFLHKFVPYIPDGLMLSPLEGILYMTANIKGSVHSGLDLESVIQGEKLVMSIKDSDEKIQNVNITLKEKIKYDDRKGDIGFQQLDLALNDNNVSLTGTIENIKTDPQWDVTLMAKMNALDEALALYPVFKEALPQDFRFTGPLNMEITSSGSKDAMQISGHTDMTRAEILYGEVFKKQKNIPFQISLKANKIADIIQLEAFAVNLQNASLNSSGSIEDMVNPRFDLVSTANEFSLKGWDAIVPLLKEYEPEGSVSIKNYMKGNFDDAFVNLHVSSPKLLFKFPASSDKKEDENTKQRKDVAESIRFELLAKKLADNITADGGLEMGNGTILDINFEEAKGKYSFQDDILKIQSFQMRTFEGDISLTGNYDSKSMQWDASPIINAVRIDGVVDAFTQYRGMMKGVFSGSFDMGGSLGKNDKMVTNANGSFRLLQGEIENVNLMETIIDSLLGIKEVYKYAGEKKDVLEKYDVTRFDSLDGEFSLLNDMLDLKKCYLENIYTPDVPGSDAKLKGDINFDTGKLDLSGKVILSSEHSEKLTKKAKPLKALLNEKGNIVLPVTVTGTMSNPKPLLDTSYVLNAMMNYYGKEELEKGLDKLKGKLGLEKLGLEKLWQKDEGHHHHHH", "soluble on expression in E. coli": "not soluble"},
      {"sequence": "MSAALEKPQIIAHIQKSLNYTVFESKWIPCSAKFVCMGNFARGTGVMQIYEIQHGELQLVREIEKSKPIKCGTFGATSLQQRHLATGDFDGNLNVWNLEVPDSPVYSVKAHKEIINAIDGVGGLGIGDGAPEIVTGSRDGTVKVWDSRQKDTPVVNMEPTEGETKRDCWTVAFGHAFNDQDRCVCAGYDNGDIKLFDLRNMSLRWEKNIRNGVCSVEFDRKDINMNKLVATSLEGKFHVFDMRTQHPSKGFASVSEKAHKSTIWQVRHLPQNRDVFMTAGGAGNLHLWKYEYPAQRSKKGADDVEMGVAGSVNLLQNVTLSTQPISSLDWSPDKQGLCVCSSFDQSVRVLIVTKLNTV", "soluble on expression in E. coli": "soluble"},
      {"sequence": "SLAVDQTRYIFRGDKDALTITVTNNDKERTFGGQAWVDNIVEKDTRPTFVVTPSFFKVKPNGQQTLRIIMASDHLPKDKESVYWLNLQDIPPALEGSGIAVALRTKLKLFYRPKALLEGRKGAEEGISLQSRPDGRTMLVNTTPYIFAIGSLLDGNGKKIATDNGTTQKLLMFMPGDEVQVKGNVVKVDSLNDYGELQTWTINKKKPAAPEAAKAEKADTAEQK", "soluble on expression in E. coli": "soluble"}
    ]}
  ]
}
